Laboratory results reported in paper PMC9950535, “Divalent metal cofactors differentially modulate RadA-mediated strand invasion and exchange in Saccharolobus solfataricus” (Bioscience Reports, 2023).
Blank lines part the entries; values can stand above or below the molecule they belong to.

Experiments:
SsoRadA [1] = target: T1, SsoRadA (Saccharolobus solfataricus, UniProt Q55075); test: TLC ATPase assay, [γ-32P]ATP; type: biochemical
T1 construct: gene radA
T1 sequence (Q55075 1-324): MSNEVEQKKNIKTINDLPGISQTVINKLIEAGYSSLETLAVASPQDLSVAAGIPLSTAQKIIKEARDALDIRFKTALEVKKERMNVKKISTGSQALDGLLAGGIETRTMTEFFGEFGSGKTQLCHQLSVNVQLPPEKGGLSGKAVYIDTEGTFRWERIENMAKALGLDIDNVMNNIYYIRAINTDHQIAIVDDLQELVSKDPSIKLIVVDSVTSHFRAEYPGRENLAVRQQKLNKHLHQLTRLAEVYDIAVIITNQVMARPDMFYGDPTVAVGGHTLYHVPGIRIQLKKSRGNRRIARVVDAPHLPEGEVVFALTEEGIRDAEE

SsoRadA [2] = target: T1, SsoRadA; test: filter binding
SsoRadA [3] = target: T2, SsoRadA (Saccharolobus solfataricus, UniProt Q55075 1-324); test: filter binding; 10 mM Mn2+, no ATP; Filter binding: 40 mM HEPES pH 7.0, 50 mM KCl, 10 mM CaCl2, MgCl2 or MnCl2, 20 pmol SsoRadA, 3 uM ATP where included, ssDNA varied; temperature not stated; conditions: protein: recombinant; single strand
T2 sequence: T1 sequence (Q55075 1-324)

SsoRadA [4] = target: T2, SsoRadA; test: filter binding; 10 mM Mg2+, 3 uM ATP; Filter binding: 40 mM HEPES pH 7.0, 50 mM KCl, 10 mM CaCl2, MgCl2 or MnCl2, 20 pmol SsoRadA, 3 uM ATP where included, ssDNA varied; temperature not stated; conditions: protein: recombinant; single strand
SsoRadA [5] = target: T2, SsoRadA; test: filter binding; 10 mM Mn2+, 3 uM ATP; Filter binding: 40 mM HEPES pH 7.0, 50 mM KCl, 10 mM CaCl2, MgCl2 or MnCl2, 20 pmol SsoRadA, 3 uM ATP where included, ssDNA varied; temperature not stated; conditions: protein: recombinant; single strand
[6] = substrate: Nc1ncnc2c1ncn2[C@@H]1O[C@H](COP(=O)(O)OP(=O)(O)OP(=O)(O)O)[C@@H](O)[C@H]1O; test: TLC ATPase assay, initial rates; type: biochemical, Saccharolobus solfataricus; conditions: 10 mM Mg2+, 20 μM (nucleotides) φX174 ssDNA, 0.5 μM SsoRadA, 25 mM Tris acetate pH 7.5, 65°C

IC50 (SsoRadA [1]): 112 µM
Molecule: Nc1ncnc2c1ncn2[C@@H]1O[C@H](COP(=O)(O)OP(=O)(O)O)[C@@H](O)[C@H]1O [ADP]

Molecule: Nc1ncnc2c1ncn2[C@@H]1O[C@H](CO[P@](=O)(O)O[P@](=O)(O)O[P@@](=O)(O)S)[C@@H](O)[C@H]1O [ATPγS]
IC50 (SsoRadA [1]): 87.8 µM

Kd (SsoRadA [2]): 1130 ± 440 nM
Molecule: Nc1ncnc2c1ncn2[C@@H]1O[C@H](COP(=O)(O)OP(=O)(O)OP(=O)(O)O)[C@@H](O)[C@H]1O [ATP]

B1: 63-mer oligonucleotide (ssDNA)
DNA: ACAGCACCAATGAAATCTATTAAGCTCCTCATCGTCCGCAAAAATATCGTCACCTCAAAAGGA
Kd (SsoRadA [3]): 82.4 ± 13.2 nM
Kd (SsoRadA [4]): 21.3 ± 1.6 nM
Kd (SsoRadA [5]): 23.1 ± 14.4 nM

B2: SsoRadA (Saccharolobus solfataricus P2) (protein)
chain: T1 sequence (Q55075 1-324)
Km [6]: 2.3 ± 0.47 µM
kcat [6]: 1.7 ± 0.09 min⁻¹
